{
  "source": "paper PMC5389579",
  "target": "SSRP1 (Flag) (human, UniProt Q08945 1-709)",
  "sequence (Q08945 whole entry)": "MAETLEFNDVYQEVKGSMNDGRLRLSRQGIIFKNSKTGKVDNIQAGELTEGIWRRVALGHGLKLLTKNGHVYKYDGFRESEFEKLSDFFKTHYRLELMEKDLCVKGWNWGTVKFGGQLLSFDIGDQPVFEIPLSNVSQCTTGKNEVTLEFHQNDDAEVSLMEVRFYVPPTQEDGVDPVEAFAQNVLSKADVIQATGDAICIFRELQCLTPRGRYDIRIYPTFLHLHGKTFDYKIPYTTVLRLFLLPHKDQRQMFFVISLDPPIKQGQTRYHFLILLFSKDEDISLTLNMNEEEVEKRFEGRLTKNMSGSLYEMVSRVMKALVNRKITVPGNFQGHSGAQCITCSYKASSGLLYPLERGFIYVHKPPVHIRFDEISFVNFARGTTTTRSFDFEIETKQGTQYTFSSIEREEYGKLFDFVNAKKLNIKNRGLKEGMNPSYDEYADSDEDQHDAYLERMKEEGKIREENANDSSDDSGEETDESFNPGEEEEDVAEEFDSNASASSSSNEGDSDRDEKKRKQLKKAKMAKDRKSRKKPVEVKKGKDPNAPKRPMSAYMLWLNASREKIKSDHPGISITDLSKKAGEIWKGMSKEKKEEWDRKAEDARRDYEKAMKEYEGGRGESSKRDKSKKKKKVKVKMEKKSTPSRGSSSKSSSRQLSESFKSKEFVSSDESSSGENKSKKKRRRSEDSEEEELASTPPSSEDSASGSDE",
  "assay": "EMSA",
  "data": [
    {"binder": "AC probe (dsDNA) DNA 1: ACACACACACACACACACACACACACACACACACAC DNA 2: GTGTGTGTGTGTGTGTGTGTGTGTGTGTGTGTGTGT", "values": [
      {"measurement": "binding result", "value": "binds"}
    ]}
  ]
}
